Assays:
[1] = target: endophilin SH3 (SH3G2_HUMAN), Q99962; assay: SPOT array
[2] = target: T1, amphyphisin SH3 (AMPH_HUMAN), P49418; assay: SPOT array
T1 chain: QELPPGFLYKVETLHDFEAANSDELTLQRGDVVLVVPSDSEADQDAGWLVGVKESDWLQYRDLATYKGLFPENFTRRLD

Row | Binder | normalised SPOT signal, Boehringer light units (BLU); mean over the file's lines of this peptide [1] | normalised SPOT signal, Boehringer light units (BLU); mean over the file's lines of this peptide [2]
1 | SGGIPKRPSSPVIS [Q96T17 281-294] | 1080 | 46.1
2 | SFLSLRRPWNWIAH [O15229 449-462] | 500 | 57.7
3 | SGAEIKRPGASVKV [O95978 26-39] | 32.7 | 34.4
4 | SFLTLTRPDRALVR [Q9H6A9 133-146] | 211 | 894
5 | SFSELVRPFKSNKS [O00529 218-231] | 106 | 32.8
6 | SGERLPRPDKGKMR [Q08043 87-100] | 47.7 | 91.2
7 | AWVSPRRPDEEQRP [Q96MG2 305-318] | 398 | 57.9
8 | SFLRLRRPWNWIAH [Q9H1Y5 130-143] | 351 | 120
9 | SGEQLPRPTRGRMR [Q9H254 103-116] | 210 | 873
10 | SGGRIRRPVNVPID [P22001 113-126] | 104 | 29
11 | SAGLPGKPPAIQAS [O95428 427-441] | 50.3 | 42.4
12 | SGGKIRRPANVPID [Q16322 147-160] | 94.6 | 0
13 | SFSHLKRPQQGAGN [O43190 163-176] | 32.4 | 26.3
14 | SFQSPTRPPLASPT [Q9UGJ0 207-221] | 161 | 27.7
15 | SGAPPTKPPTTPVG [P54259 267-281] | 65.4 | 41.3
16 | SFTALRRPSLRREA [O76050 230-243] | 27.6 | 65.1
17 | SGDQLKRPFGAFRS [Q9Y6H5 853-866] | 75.5 | 20.6

Reference: article PMC314469, “Protein Interaction Networks by Proteome Peptide Scanning” (PLoS Biology, 2004)
